Results published in patent US20090047240A1.

Key:
[1] = molecular target: TLR9 expressed in HEK293 cells (UniProt Q9NR96); test: cell-based or functional assay
[2] = molecular target: TLR7 expressed in HEK293 cells (UniProt Q9NYK1); test: cell-based or functional assay
Chain of TLR7 expressed in HEK293 cells (Q9NYK1 27-1049 limits assumed): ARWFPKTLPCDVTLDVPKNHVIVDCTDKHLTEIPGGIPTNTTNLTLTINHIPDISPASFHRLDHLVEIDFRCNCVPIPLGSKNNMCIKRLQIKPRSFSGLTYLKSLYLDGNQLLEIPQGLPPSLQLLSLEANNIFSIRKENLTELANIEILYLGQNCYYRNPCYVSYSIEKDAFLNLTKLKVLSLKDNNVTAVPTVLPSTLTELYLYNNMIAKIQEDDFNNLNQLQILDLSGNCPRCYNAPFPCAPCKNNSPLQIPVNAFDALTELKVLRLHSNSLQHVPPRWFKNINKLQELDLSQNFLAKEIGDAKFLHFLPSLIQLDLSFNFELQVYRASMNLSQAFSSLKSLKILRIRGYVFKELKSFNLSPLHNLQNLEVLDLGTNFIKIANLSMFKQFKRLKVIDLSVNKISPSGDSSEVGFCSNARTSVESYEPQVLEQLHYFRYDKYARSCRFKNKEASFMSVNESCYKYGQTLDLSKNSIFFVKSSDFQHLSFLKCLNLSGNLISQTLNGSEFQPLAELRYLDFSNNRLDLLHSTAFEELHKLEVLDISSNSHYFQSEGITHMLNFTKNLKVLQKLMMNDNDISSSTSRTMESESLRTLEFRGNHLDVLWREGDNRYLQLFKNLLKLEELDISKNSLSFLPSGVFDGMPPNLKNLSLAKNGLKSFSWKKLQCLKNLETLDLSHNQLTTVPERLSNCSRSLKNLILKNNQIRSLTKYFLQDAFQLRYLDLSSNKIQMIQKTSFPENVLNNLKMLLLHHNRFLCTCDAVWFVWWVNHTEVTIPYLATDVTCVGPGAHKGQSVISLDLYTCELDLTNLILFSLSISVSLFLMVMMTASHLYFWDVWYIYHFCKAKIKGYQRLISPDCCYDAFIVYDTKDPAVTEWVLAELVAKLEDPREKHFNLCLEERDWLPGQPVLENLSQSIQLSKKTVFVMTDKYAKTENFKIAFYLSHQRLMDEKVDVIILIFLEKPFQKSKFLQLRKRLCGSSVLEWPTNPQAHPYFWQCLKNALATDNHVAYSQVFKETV

Chain of TLR9 expressed in HEK293 cells (Q9NR96 26-1032 limits assumed): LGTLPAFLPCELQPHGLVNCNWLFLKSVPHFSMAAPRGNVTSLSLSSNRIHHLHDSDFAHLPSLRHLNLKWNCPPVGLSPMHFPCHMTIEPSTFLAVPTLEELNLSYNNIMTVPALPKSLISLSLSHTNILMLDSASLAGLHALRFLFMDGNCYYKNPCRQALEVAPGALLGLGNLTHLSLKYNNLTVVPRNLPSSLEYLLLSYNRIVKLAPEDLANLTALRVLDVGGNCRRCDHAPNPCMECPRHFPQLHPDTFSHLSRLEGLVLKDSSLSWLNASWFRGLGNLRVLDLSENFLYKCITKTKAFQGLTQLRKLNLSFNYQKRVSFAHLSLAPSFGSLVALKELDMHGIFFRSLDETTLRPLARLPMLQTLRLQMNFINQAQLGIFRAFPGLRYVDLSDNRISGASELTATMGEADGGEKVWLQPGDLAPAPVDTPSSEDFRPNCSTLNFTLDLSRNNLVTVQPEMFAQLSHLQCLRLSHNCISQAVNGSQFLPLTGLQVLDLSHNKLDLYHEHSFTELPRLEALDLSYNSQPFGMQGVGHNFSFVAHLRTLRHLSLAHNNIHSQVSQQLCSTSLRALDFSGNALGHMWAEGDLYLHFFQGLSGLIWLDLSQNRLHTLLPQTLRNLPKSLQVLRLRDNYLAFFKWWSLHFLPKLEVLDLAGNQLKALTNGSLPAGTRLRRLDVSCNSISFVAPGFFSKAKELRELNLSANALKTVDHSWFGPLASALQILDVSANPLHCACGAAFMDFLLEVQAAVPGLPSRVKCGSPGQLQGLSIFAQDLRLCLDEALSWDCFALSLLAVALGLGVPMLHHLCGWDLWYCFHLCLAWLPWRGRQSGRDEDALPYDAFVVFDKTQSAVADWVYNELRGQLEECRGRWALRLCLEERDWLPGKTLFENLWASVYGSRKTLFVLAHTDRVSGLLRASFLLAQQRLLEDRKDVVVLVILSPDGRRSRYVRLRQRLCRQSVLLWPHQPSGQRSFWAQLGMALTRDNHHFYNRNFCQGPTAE

recombinant human Cpn10 with an N-terminal Alanine residue (from UniProt P61604 2-102)
NF-κB activation (luciferase reporter) in HEK293 cells expressing TLR9, stimulated with CpG DNA (fold reduction) [1]: 5 to 10
NF-κB activation (luciferase reporter) in HEK293 cells expressing TLR7 and TLR4, stimulated with R848 (fold reduction) [2]: 2
